Laboratory results as given in the supplement of paper PMC10126150.
± gives the standard deviation of the averaged measurements.
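Note: ATP exposure 15 min at 22 °C before imaging.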

What follows are sequences tested on ATP (assay: switch fluorescence ratio, 500 uM ATP over buffer (Cy3 cluster intensity, sum of 5 cycles each) (fold (ratio)); higher = stronger signal-on switching upon ATP binding; sequences stand for … in TCGTCGGCAGCGTCAGATGTGTATAAGAGACAGTTTTTTTTTTTTTTTTTTTTTTTTT…TC). Conditions: aptamer strand: ATP DNA aptamer (quencher-CACCTGGGGGAGTATTGCGGAGGAAGG + anchor), 100 nM annealed; ATP concentration: 500 uM.
How it was run: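 Switching-strand clusters labelled with Cy3 on a modified Illumina MiSeq flow-cell were annealed to 100 nM quencher-labelled ATP aptamer, imaged in selection buffer, and re-imaged after 15 min with 500 uM ATP at 22 °C. This was done over five cycles with NaOH stripping and re-annealing in between. The fluorescence ratio is summed target-cycle over summed buffer-cycle Cy3 intensity per cluster, averaged per switch-domain sequence, excluding clusters outside 100-1000 RFU.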
ATGCAGAATT was tested, and the switch fluorescence ratio was 0.988 ± 0.017.
ATGCAGCAGT gave a switch fluorescence ratio of 1.46 ± 0.051.
In the case of ATGCAGGTAT, the switch fluorescence ratio is reported as 1.01 ± 0.049.
With ATGCATCGAG the switch fluorescence ratio was 1.01 ± 0.03.
ATGCATCTAT gave a switch fluorescence ratio of 0.989 ± 0.011.
ATGCATGGGG gave a switch fluorescence ratio of 1.01 ± 0.017.
ATGCCAATAA showed a switch fluorescence ratio of 1.01 ± 0.03.
ATGCCCGTCG was tested, and the switch fluorescence ratio was 1.06 ± 0.043.
For ATGCCGGGGG, the switch fluorescence ratio was 1 ± 0.021.
Work on ATGCGCAGCG yielded a switch fluorescence ratio of 1.04 ± 0.035.
With ATGCGCTCGA the switch fluorescence ratio was 1.02 ± 0.053.
For ATGCGCTGGG, the switch fluorescence ratio was 1.01 ± 0.021.
Work on ATGCGGAGTG yielded a switch fluorescence ratio of 0.987 ± 0.02.
For ATGCGGGGTC, the switch fluorescence ratio was 1.03 ± 0.053.
Work on ATGCGGTCCT yielded a switch fluorescence ratio of 1.02 ± 0.016.
Work on ATGCGGTCGG yielded a switch fluorescence ratio of 1.02 ± 0.045.
ATGCGTAGGT showed a switch fluorescence ratio of 0.988 ± 0.049.
Sequence ATGCGTATCC has a switch fluorescence ratio of 1 ± 0.034.
In the case of ATGCTGATGT, the switch fluorescence ratio is reported as 1.016 ± 0.0011.
Work on ATGCTGGGGT yielded a switch fluorescence ratio of 0.986 ± 0.021.
For ATGCTGGGTA, the switch fluorescence ratio was 0.997 ± 0.026.
ATGCTTCTGT showed a switch fluorescence ratio of 0.964 ± 0.013.
For ATGCTTGATT, the switch fluorescence ratio was 1.017 ± 0.0041.
In the case of ATGGAAAAGC, the switch fluorescence ratio is reported as 1 ± 0.056.
Sequence ATGGAAAGAA has a switch fluorescence ratio of 0.974 ± 0.038.
ATGGAAAGTT was tested, and the switch fluorescence ratio was 0.99 ± 0.035.
In the case of ATGGAACTTG, the switch fluorescence ratio is reported as 0.9943 ± 0.0059.
For ATGGAAGTG, the switch fluorescence ratio was 1.001 ± 0.0015.
In the case of ATGGAATAT, the switch fluorescence ratio is reported as 0.969 ± 0.038.
In the case of ATGGACATAC, the switch fluorescence ratio is reported as 1.22 ± 0.098.
For ATGGACTCCT, the switch fluorescence ratio was 1.04 ± 0.044.
With ATGGAGCAGT the switch fluorescence ratio was 1.6 ± 0.019.
For ATGGAGGCGG, the switch fluorescence ratio was 1.04 ± 0.04.
ATGGAGGGGG gave a switch fluorescence ratio of 1.02 ± 0.047.
ATGGATAAGC gave a switch fluorescence ratio of 0.997 ± 0.011.
With ATGGATAATG the switch fluorescence ratio was 0.977 ± 0.054.
Sequence ATGGATAATT has a switch fluorescence ratio of 1.04 ± 0.011.
ATGGATTGAT was tested, and the switch fluorescence ratio was 0.9621 ± 0.0051.
With ATGGATTTAT the switch fluorescence ratio was 0.992 ± 0.037.
Work on ATGGCACAAT yielded a switch fluorescence ratio of 1.02 ± 0.067.
In the case of ATGGCCGATA, the switch fluorescence ratio is reported as 0.9537 ± 0.0027.
ATGGCCGGTG was tested, and the switch fluorescence ratio was 1.006 ± 0.004.
ATGGCCTTAG gave a switch fluorescence ratio of 0.9931 ± 0.0094.
Work on ATGGCTTGTA yielded a switch fluorescence ratio of 0.999 ± 0.01.
Sequence ATGGGAAACT has a switch fluorescence ratio of 1.012 ± 0.0074.
With ATGGGAATAC the switch fluorescence ratio was 2.59 ± 0.28.
Work on ATGGGACCGT yielded a switch fluorescence ratio of 1.01 ± 0.056.
ATGGGACGAT was tested, and the switch fluorescence ratio was 0.995 ± 0.026.
Sequence ATGGGATGGG has a switch fluorescence ratio of 1 ± 0.025.
Work on ATGGGCAACT yielded a switch fluorescence ratio of 0.99 ± 0.024.
In the case of ATGGGCACGG, the switch fluorescence ratio is reported as 0.99 ± 0.025.
ATGGGCCGAG showed a switch fluorescence ratio of 0.989 ± 0.04.
Sequence ATGGGCCTGG has a switch fluorescence ratio of 0.9792 ± 0.0094.
In the case of ATGGGCGTGG, the switch fluorescence ratio is reported as 1 ± 0.06.
In the case of ATGGGCTGGA, the switch fluorescence ratio is reported as 1.04 ± 0.015.
ATGGGGCCAA showed a switch fluorescence ratio of 1.03 ± 0.031.
Work on ATGGGGCCTG yielded a switch fluorescence ratio of 0.9828 ± 0.0078.
ATGGGGCTGA showed a switch fluorescence ratio of 0.993 ± 0.029.
In the case of ATGGGGCTTT, the switch fluorescence ratio is reported as 1.01 ± 0.013.
ATGGGGGCCG was tested, and the switch fluorescence ratio was 1.01 ± 0.039.
Sequence ATGGGGGCTT has a switch fluorescence ratio of 1.02 ± 0.047.
In the case of ATGGGGGGCC, the switch fluorescence ratio is reported as 0.995 ± 0.026.
Work on ATGGGGGTTC yielded a switch fluorescence ratio of 0.992 ± 0.023.
With ATGGGGGTTG the switch fluorescence ratio was 0.999 ± 0.018.
ATGGGGTCAG was tested, and the switch fluorescence ratio was 0.993 ± 0.021.
ATGGGGTTGG was tested, and the switch fluorescence ratio was 1 ± 0.049.
With ATGGGGTTTT the switch fluorescence ratio was 1.01 ± 0.02.
With ATGGGTAGAG the switch fluorescence ratio was 1 ± 0.022.
In the case of ATGGGTATGT, the switch fluorescence ratio is reported as 1.01 ± 0.043.
ATGGGTCACG gave a switch fluorescence ratio of 0.987 ± 0.012.
ATGGGTCAGT showed a switch fluorescence ratio of 0.9872 ± 0.0044.
With ATGGGTCGGA the switch fluorescence ratio was 1.01 ± 0.053.
ATGGGTCTAT was tested, and the switch fluorescence ratio was 1 ± 0.012.
For ATGGGTCTT, the switch fluorescence ratio was 1.01 ± 0.023.
Sequence ATGGGTGGTT has a switch fluorescence ratio of 0.995 ± 0.032.
For ATGGGTGTCG, the switch fluorescence ratio was 1.05 ± 0.015.
